Measured values taken from US20200239535A1.

Biological target: cell surface of 293 AAV cells (the filing names αvβ3 and αvβ5 integrins as the receptors of RGD4C)
Assay: 200000 TU/cell incubated 1 h on ice with 293AAV cells; unbound particles recovered from the medium, titrated on TG1 E. coli and counted as colonies; value relative to its control

Substance | binding efficiency (percentage of vectors bound to the cell surface)
M13.PAAV vector (non-targeted phagemid/AAV particle lacking RGD4C) (from UniProt P69168 19-424) | 7.1%
RGD.PAAV vector (RGD4C-targeted phagemid/AAV particle displaying the RGD4C peptide on the pIII minor coat protein) | 58.2%
